Tests used:
[1] = molecular target: T1, Recombinant Human/Mouse Indian Hedgehog C28II, amino terminal peptide (R&D Systems cat#1705-HH/CF) (human/mouse (100% sequence identity in …, UniProt Q14623 28-202)); test: SPR (Biacore), IgG1 captured on protein G', human/mouse Ihh as analyte, 1:1 Langmuir
T1 construct: domain: amino terminal peptide; bought; also called Human/mouse Ihh; Ihh-N C28II
Source text: (§1) Protein G was coupled to the CM5 chip surface using standard amine linkage chemistry. Protein G′ was cleared of Tris using a Dulbecco's PBS equilibrated PD-10 column. […] Approximately 500 RUs of protein G were covalently bound to the surface of flow chamber 2 (Fc2). […] Immobilization levels were reproducible between cycles.

[2] = molecular target: T2, Recombinant Human Sonic Hedgehog C24II amino terminal peptide (R&D Systems cat#1845-SH) (human, UniProt Q15465 24-197); test: SPR (Biacore), IgG1 captured on protein G', human Shh as analyte, 1:1 Langmuir
T2 construct: domain: amino terminal peptide; bought; also called Shh-C24II; C24II peptide
Source text: as §1

[3] = molecular target: T1, Recombinant Human/Mouse Indian Hedgehog …; test: cell-based or functional assay
[4] = molecular target: T3, Shh-N in conditioned medium (human, UniProt Q15465 24-197, N-terminal palmitoyl modification; lacks the C-terminal cholesterol moiety); test: cell-based or functional assay
[5] = molecular target: T3, Shh-N in conditioned medium; test: ELISA, apparent KD, purified antibody on immobilized Shh-CM
Procedure: (§2) The binding of purified antibodies to recombinant human Shh was determined using an ELISA-based method. The N-terminal signaling domain of Shh, Shh-N, was presented in two forms: as a purified protein isolated from bacteria lacking lipid modifications and as a constituent of conditioned medium in a form that contains the N-terminal palmitoyl modification but lacks the C-terminal cholesterol moiety.
(§3) The plates were sealed and placed on a shaker overnight at 5° C. The next day, the plates were washed 4 times with PBS with 0.05% Tween 20 (PBS-T). […] The plates were washed four times with PBS-T. Titrations of purified antibody (half log serial dilutions over at least six logs with a starting concentration of 30 μg/mL) were made in 100 μl PBS-T and added into wells and incubated with shaking overnight at 4° C. Antibody controls included human IgG2 and IgG4 (Sigma-Aldrich, Cat, #I5404 and #I4639, respectively). […] Following washing with PBS-T, the chemiluminescent Peroxidase substrate (Sigma cat# CPS-2-60) was added at room temperature and incubated for ten minutes with the plate covered by foil. Each well was read for 100 msec in the Spectromax 5e to determine RLU.

[6] = molecular target: T2, Recombinant Human Sonic Hedgehog C24II …; test: ELISA, apparent KD, purified antibody on immobilized Shh C24II
Procedure: as §2, §3

[7] = molecular target: T1, Recombinant Human/Mouse Indian Hedgehog …; test: SPR (Biacore), IgG1 captured on protein G', Ihh as analyte
Source text: as §1

B1: 6D7OP (antibody, IgG1, V domains shown)
VH: QVQLQESGPGLVKPSQTLSLTCTVSGGSINSGGFYWSWIRQHPGKGLEWIGSIYYSGNTYYNPSLKSRVTISVDTSKNQFSLKLSSVTAADTAVYYCARGQDSGDYDWYFDLWGRGTLVTVSS
VL: SYELTQPPSVSVSPGQTASITCSGEKLGYKYVSWYQQKPGQSPVLVIYHDNKRPSGIPERFSGSNSGNTATLTISGTQAMDEADYYCQAGDSSAVFGGGTKLTVL
With B1 the Kd [1] was 0.0342 nM, the Kd [2] was 0.003 nM and the “IC50, inhibition of osteoblast differentiation of C3H10T1/2 cells induced by Ihh-N C28II (2 µg/ml)” value [3] was 16.3 nM.

B2: 3H8OP (antibody, V domains shown)
VH: QVQLVESGGGVVQPGRSLRLSCAASGFTFSTYGMHWVRQAPGKGLEWVAVIWYDGSNKYYADSVKGRFTISRDNSKNTLYLQMNSLRAEDTAVYYCARDLYYYGSGSPFDYWGQGTLVTVSS
VL: EIVMTQSPATLSVSPGERATLSCRASQSVSSNLAWYQQKPGQAPRLLIYGVSIRATGIPARFSGSGSGTEFTLTISSLQSEDFAVYYCQQYNNWPRPGFGGGTKVEIK
B2 was tested, and the “IC50, inhibition of osteoblast differentiation (alkaline phosphatase) of C3H10T1/2 cells” value [4] was 5.6 nM, the Kd [2] was 0.0261 nM and the Kd [5] was 0.685 nM. The Kd [6] was 0.082 nM and the binding result [7] was “no binding”.

Reference: patent publication US20120328625A1 (AstraZeneca / MedImmune, published 2012)
